Blank lines part the entries; values can stand above or below the binder they belong to. Ends that are not written are not given here.
Experiments:
[1] = molecular target: T1, NRP2A peptide (biotinylated) (human, biotin-conjugated, site not stated); experiment: BLI, isoform peptide on sensor, 50 nM antibody
T1 construct: also called NPR2A; NRP2a specific peptide

[2] = molecular target: T2, Mid-mNRP2A peptide (biotinylated) (mouse, biotin-conjugated, site not stated); experiment: BLI, peptide on sensor, 50 nM antibody
T2 peptide: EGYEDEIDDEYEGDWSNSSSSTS

[3] = molecular target: T3, Mid-NRP2A peptide (biotinylated) (human, biotin-conjugated, site not stated); experiment: BLI, peptide on sensor, 50 nM antibody
T3 peptide: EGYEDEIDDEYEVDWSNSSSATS

[4] = molecular target: T4, mNRP2A peptide (biotinylated) (mouse, biotin-conjugated, site not stated); experiment: BLI, peptide on sensor, 50 nM antibody
T4 construct: also called mouse NRP2 isoform a peptide

[5] = molecular target: T5, NRP2a_scan 6 peptide (biotinylated) (human, also: biotin-conjugated, site not given here); experiment: BLI, peptide on sensor, 50 nM antibody
T5 peptide: IDDEYEVDWSNS

[6] = molecular target: T6, NRP2a_scan 5 peptide (biotinylated) (human, also: biotin-conjugated, site not given here); experiment: BLI, peptide on sensor, 50 nM antibody
T6 peptide: EDEIDDEYEVDW

[7] = molecular target: T7, Short NRP2A peptide (biotinylated) (human, biotin-conjugated, site not stated); experiment: BLI, peptide on sensor;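 also: octet RED96e biolayer interferometry with biotin-conjugated NRP2 peptides spanning isoform-specific regions (human and mouse) loaded on biosensors, antibodies applied at 50 nM, association read over 300 s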
[8] = molecular target: mNRP2b peptide (biotinylated) (mouse, biotin-conjugated, site not stated); experiment: BLI, peptide on sensor
[9] = molecular target: T8, NRP2b peptide (biotinylated) (human, biotin-conjugated, site not stated); experiment: BLI, peptide on sensor
T8 construct: also called NRP2b isoform specific peptide
T8 peptide: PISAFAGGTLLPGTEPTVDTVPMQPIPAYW

[10] = molecular target: T9, NRP2a_scan 7 peptide (biotinylated) (human, also: biotin-conjugated, site not given here); experiment: BLI, peptide on sensor;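 also: octet RED96e biolayer interferometry with biotin-conjugated NRP2 peptides spanning isoform-specific regions (human and mouse) loaded on biosensors, antibodies applied at 50 nM, association read over 300 s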
T9 peptide: EYEVDWSNSSSA

[11] = molecular target: T10, NRP2a_scan 1 peptide (biotinylated) (human, also: biotin-conjugated, site not given here); experiment: BLI, peptide on sensor;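 also: octet RED96e biolayer interferometry with biotin-conjugated NRP2 peptides spanning isoform-specific regions (human and mouse) loaded on biosensors, antibodies applied at 50 nM, association read over 300 s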
T10 peptide: VDIPEIHEREGY

[12] = molecular target: T11, NRP2a_scan 2 peptide (biotinylated) (human, also: biotin-conjugated, site not given here); experiment: BLI, peptide on sensor;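 also: octet RED96e biolayer interferometry with biotin-conjugated NRP2 peptides spanning isoform-specific regions (human and mouse) loaded on biosensors, antibodies applied at 50 nM, association read over 300 s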
T11 peptide: PEIHEREGYEDE

[13] = molecular target: T12, NRP2a_scan 3 peptide (biotinylated) (human, also: biotin-conjugated, site not given here); experiment: BLI, peptide on sensor
T12 peptide: HEREGYEDEIDD

[14] = molecular target: T13, NRP2a_scan 4 peptide (biotinylated) (human, also: biotin-conjugated, site not given here); experiment: BLI, peptide on sensor
T13 peptide: EGYEDEIDDEYE

[15] = molecular target: T7, Short NRP2A peptide (biotinylated); experiment: BLI, peptide on sensor, 50 nM antibody
[16] = molecular target: T8, NRP2b peptide (biotinylated); experiment: BLI, peptide on sensor
[17] = molecular target: T4, mNRP2A peptide (biotinylated); experiment: BLI, peptide on sensor
[18] = molecular target: T2, Mid-mNRP2A peptide (biotinylated); experiment: BLI, peptide on sensor
Method: (§1) Biolayer interferometry (BLI) experiments were carried out on an Octet RED96e instrument (Sartorius) to further characterize antibody affinities to the NRP2 peptides screened above. Antibodies were epitope mapped using peptides that span the NRP2a isoform specific region; antibodies were also tested for reactivity to an NRP2b isoform specific peptide and cross-reactivity to mNRP2a and mNRP2b peptides (see Table E2 for peptide sequences).
(§2) Antibodies and peptides were diluted in 1×PBS, 0.1% BSA, 0.02% Tween 20, pH 7.4. […] The biosensors were then dipped into 50 nM solutions of each antibody and read for 300s. The biosensors were regenerated in 10 mM glycine, pH 1.5 in between cycles of different antibodies.

[19] = molecular target: T3, Mid-NRP2A peptide (biotinylated); experiment: BLI, peptide on sensor
Method: as §1, §2

[20] = molecular target: T5, NRP2a_scan 6 peptide (biotinylated); experiment: BLI, peptide on sensor
Method: as §1, §2

[21] = molecular target: T6, NRP2a_scan 5 peptide (biotinylated); experiment: BLI, peptide on sensor
Method: as §1, §2

[22] = molecular target: T14, human NRP2b expressed on Expi293F cells (human); experiment: flow cytometry, Expi293F cells transfected with the target, fluorescent anti-mouse secondary; MFI signal relative to mock-transfected cells
T14 construct: also called full length NRP2b
T14 chain: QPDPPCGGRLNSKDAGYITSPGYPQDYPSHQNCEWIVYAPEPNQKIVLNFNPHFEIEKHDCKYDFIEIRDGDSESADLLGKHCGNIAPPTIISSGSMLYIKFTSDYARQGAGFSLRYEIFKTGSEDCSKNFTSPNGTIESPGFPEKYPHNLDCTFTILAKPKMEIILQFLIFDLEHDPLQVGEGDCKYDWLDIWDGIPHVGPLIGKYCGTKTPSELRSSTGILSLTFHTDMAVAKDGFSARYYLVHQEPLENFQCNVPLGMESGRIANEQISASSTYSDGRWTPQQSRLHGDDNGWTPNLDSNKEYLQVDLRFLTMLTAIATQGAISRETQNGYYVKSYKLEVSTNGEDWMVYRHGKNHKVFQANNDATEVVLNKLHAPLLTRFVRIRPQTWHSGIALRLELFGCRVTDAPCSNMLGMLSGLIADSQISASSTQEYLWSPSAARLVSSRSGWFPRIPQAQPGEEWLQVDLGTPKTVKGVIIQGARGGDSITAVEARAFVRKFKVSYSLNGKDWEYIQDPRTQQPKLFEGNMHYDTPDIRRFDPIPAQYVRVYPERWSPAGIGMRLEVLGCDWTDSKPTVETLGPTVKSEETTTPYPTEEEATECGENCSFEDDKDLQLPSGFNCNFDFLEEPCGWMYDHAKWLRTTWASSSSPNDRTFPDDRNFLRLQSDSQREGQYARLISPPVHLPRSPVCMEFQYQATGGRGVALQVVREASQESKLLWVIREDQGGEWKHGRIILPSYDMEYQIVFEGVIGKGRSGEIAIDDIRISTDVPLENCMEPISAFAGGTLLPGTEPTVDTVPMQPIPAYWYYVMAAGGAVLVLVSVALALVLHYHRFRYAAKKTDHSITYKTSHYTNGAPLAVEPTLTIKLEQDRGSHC
Method: (§3) Signal to noise was calculated as the staining intensity of transfected cells compared to an un-transfected ‘mock’ population.

NRP2v3 = molecular target: T15, NRP2v3; experiment: as above
T15 construct: not the NanoLuc-tagged construct m33; also called human NRP2 v3 expressed on Expi293F cells; NRP2a v3
T15 chain: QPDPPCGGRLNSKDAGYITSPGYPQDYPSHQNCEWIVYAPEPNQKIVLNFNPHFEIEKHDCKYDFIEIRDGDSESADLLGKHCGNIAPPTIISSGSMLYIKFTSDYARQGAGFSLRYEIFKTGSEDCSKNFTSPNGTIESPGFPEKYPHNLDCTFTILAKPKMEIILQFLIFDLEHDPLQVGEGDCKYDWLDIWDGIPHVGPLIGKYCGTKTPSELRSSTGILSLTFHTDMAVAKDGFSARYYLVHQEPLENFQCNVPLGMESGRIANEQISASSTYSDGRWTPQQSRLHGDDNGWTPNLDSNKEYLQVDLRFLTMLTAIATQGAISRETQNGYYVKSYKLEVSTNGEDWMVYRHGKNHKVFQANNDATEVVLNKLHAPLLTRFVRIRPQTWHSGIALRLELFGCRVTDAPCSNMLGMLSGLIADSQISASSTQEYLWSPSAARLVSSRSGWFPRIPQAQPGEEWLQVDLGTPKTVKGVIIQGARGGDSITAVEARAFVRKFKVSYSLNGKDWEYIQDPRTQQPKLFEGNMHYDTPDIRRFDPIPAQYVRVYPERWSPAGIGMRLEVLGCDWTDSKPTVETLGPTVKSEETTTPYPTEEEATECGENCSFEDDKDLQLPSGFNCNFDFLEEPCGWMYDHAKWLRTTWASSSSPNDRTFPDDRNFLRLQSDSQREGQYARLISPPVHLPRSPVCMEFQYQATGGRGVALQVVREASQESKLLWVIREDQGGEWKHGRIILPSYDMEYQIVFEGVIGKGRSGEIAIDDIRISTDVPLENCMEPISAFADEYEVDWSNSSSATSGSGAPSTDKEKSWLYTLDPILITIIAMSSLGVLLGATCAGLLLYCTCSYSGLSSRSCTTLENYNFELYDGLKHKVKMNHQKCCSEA
Method: as §3

[23] = molecular target: T10, NRP2a_scan 1 peptide (biotinylated); experiment: peptide ELISA
[24] = molecular target: T16, Human NRP2a v2 (926aa) in pBiT2.1-C with C-terminal split NanoLuc tag, expressed in Expi293 cells (human, UniProt O60462 23-931); experiment: CCL21-induced NRP2a/CCR7 receptor dimerization (NanoBiT, Example 7); mark beside the epitope box
T16 construct: cDNA Origene RCC220706, isoform 2; also called pBiT2.1-C-NRP2v2 (isoform 2); NRP2 v2; not shown: vector-encoded spacer and small split NanoLuc fragment (pBiT2.1-C)

[25] = molecular target: T10, NRP2a_scan 1 peptide (biotinylated); experiment: BLI, peptide on sensor, 50 nM antibody
[26] = molecular target: T11, NRP2a_scan 2 peptide (biotinylated); experiment: BLI, peptide on sensor, 50 nM antibody
[27] = molecular target: T8, NRP2b peptide (biotinylated); experiment: peptide ELISA

mNRP2b peptide (biotinylated) (mouse, biotin-conjugated, site not stated), sequence (peptide, as listed by the source): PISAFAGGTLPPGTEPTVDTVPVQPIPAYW

binding result [1]: binds
binding result [2]: binds
binding result [3]: binds
binding result [4]: binds
binding result [5]: binds
binding result [6]: binds
binding result [7]: no binding (tested: 50 nM)
binding result [8]: no binding (tested: 50 nM)
binding result [9]: no binding (tested: 50 nM)
binding result [10]: no binding (tested: 50 nM)
binding result [11]: no binding (tested: 50 nM)
binding result [12]: no binding (tested: 50 nM)
binding result [13]: no binding (tested: 50 nM)
binding result [14]: no binding (tested: 50 nM)
B1: aNRP2-401v2 (antibody, V domains shown)
VH: EVQLQESGGGLVKPGGSLKLSCAASGFTFSDYGMHWVRQAPEKGLEWVATISRDINTVYYADTVKGRFTISRDNAKNTLFLQVTSLRSEDTAMYYCTRGGYTDYWGQGTTLTVSS
VL: DIVMTQTPLSLPVSLGDQASISCRSSQSLVHSNGNTYLYWYLQRPGQSPKLLIYKVSNRFSGVPDRFSGSGSGTDFTLKISRVEAEDLGVYFCSQSTHVLTFGGGTKLEIK
notes: Mouse monoclonal

binding result [1]: binds
binding result [15]: binds
binding result [16]: no binding (tested: 50 nM)
binding result [17]: no binding (tested: 50 nM)
binding result [8]: no binding (tested: 50 nM)
binding result [18]: no binding (tested: 50 nM)
binding result [19]: no binding (tested: 50 nM)
binding result [10]: no binding (tested: 50 nM)
binding result [12]: no binding (tested: 50 nM)
binding result [20]: no binding (tested: 50 nM)
binding result [13]: no binding (tested: 50 nM)
binding result [14]: no binding (tested: 50 nM)
binding result [21]: no binding (tested: 50 nM)
binding result [22]: no binding
binding result (NRP2v3): no binding
binding result [23]: binds
blocks receptor dimerization [24]: > 50%
B2: aNRP2-400v2 (antibody, V domains shown)
VH: EVQLQESGAELARPGASVKLSCKASGYTFRSYGISWVKQRTGQGLEWIGEIYPRSGNTYYDENFKGRATLTADKSSSTAFMELRSLTSEDSAVYFCARSSITAVVAIPYYYAMDYWGQGTSVTVSS
VL: DIQMTQTTSSLSASLGDRVTISCSASQGISNYLNWYQQKPDGSVKLLIYYTSSLHSGVPSRFSGSGSGTDYSLTISNLEPEDIATYYCQQYSKLPHTFGGGTKLELK
notes: Mouse monoclonal

binding result [1]: binds
binding result [15]: binds
binding result [25]: binds
binding result [26]: binds
binding result [8]: no binding (tested: 50 nM)
binding result [19]: no binding (tested: 50 nM)
binding result [10]: no binding (tested: 50 nM)
binding result [20]: no binding (tested: 50 nM)
binding result [13]: no binding (tested: 50 nM)
binding result [14]: no binding (tested: 50 nM)
binding result [21]: no binding (tested: 50 nM)
binding result [22]: no binding
binding result (NRP2v3): no binding
binding result [27]: no binding (tested: <3x blank)
blocks receptor dimerization [24]: < 50%
B3: aNRP2-404v2 (antibody, V domains shown)
VH: EVQLQQSGPELVKPGASVKISCKASGYTFTDYNMHWVKQSHGKSLEWIGYIYPYNGDSGYNQRFKSEATLTVDISSSTAYMELRSLTSDDSAVYYCARLGRGYWGQGTTLTVSS
VL: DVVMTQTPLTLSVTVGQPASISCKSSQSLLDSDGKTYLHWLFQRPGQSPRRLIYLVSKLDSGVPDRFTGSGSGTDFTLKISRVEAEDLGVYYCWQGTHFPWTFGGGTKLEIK
notes: Mouse monoclonal

From patent US20240417476A1 (ATYR PHARMA, published 2024)
